Assay results: article PMC12170172, “Initiation of ERAD by the bifunctional complex of Mnl1/Htm1 mannosidase and protein disulfide isomerase” (Nature Structural & Molecular Biology, 2025)
Positions count from the first letter of the chain named.

Assays:
Settings in all cases: both partners purified
[1] = target: T1, Mnl1 (C579S)–Pdi1 complex (S. cerevisiae, UniProt P38888 21-796; P17967 29-522, C579S); assay: pull-down; as a6, but the Mnl1–Pdi1 complex was pretreated with DPS to induce disulfides between the Mnl1 loop cysteines and the active-site cysteines of Pdi1
T1 construct: Mnl1 (Htm1) of S. cerevisiae with a substituted loop cysteine; Pdi1 of S. cerevisiae, untagged; source: S. cerevisiae, overexpressed, purified (anti-FLAG M2 resin, Superdex 200); not shown: FLAG, C-terminal, kept
T1 sequence (looked up) 1: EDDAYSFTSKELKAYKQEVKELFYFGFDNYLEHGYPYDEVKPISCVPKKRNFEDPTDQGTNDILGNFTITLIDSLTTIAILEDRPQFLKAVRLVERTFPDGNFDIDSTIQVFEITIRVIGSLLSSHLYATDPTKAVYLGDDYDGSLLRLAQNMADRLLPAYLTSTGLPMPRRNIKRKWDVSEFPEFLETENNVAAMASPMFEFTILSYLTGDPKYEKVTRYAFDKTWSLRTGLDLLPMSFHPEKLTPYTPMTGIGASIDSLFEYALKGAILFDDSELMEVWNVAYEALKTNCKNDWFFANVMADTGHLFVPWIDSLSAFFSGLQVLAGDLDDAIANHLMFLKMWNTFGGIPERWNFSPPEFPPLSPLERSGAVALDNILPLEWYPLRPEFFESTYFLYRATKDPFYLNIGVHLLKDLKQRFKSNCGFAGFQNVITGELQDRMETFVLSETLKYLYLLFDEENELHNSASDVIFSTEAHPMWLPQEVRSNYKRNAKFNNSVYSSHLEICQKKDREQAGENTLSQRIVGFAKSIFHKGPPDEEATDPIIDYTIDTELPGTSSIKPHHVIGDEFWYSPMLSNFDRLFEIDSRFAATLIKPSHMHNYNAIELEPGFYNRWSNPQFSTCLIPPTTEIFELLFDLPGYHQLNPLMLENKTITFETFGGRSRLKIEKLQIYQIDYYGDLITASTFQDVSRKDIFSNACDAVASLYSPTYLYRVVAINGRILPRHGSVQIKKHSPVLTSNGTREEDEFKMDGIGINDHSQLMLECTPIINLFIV
T1 sequence (looked up) 2: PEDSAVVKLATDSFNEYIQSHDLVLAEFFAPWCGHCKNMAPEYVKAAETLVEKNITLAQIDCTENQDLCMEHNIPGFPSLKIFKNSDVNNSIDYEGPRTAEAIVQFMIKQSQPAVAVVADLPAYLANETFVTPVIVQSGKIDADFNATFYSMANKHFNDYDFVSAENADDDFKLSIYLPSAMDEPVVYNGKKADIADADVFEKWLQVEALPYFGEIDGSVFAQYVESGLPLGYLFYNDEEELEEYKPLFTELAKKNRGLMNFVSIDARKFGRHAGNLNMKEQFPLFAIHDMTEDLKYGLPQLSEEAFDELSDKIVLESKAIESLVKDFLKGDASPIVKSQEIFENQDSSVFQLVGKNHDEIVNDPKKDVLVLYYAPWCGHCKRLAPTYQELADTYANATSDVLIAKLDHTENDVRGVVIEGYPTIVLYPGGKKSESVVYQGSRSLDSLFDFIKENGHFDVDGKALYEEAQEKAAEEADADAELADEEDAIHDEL

[2] = target: T2, Mnl1 (C579S;C644S)–Pdi1 complex (S. cerevisiae, UniProt P38888 21-796; P17967 29-522, C579S | C644S); assay: as above
T2 construct: Mnl1 (Htm1) of S. cerevisiae with both loop cysteines substituted; Pdi1 of S. cerevisiae, untagged; also called double-cysteine mutant; source: S. cerevisiae, overexpressed, purified (anti-FLAG M2 resin, Superdex 200); not shown: FLAG, C-terminal, kept
T2 sequence (looked up) 1: T1 sequence (looked up) 1 with C624S
T2 sequence (looked up) 2: T1 sequence (looked up) 2

[3] = target: T3, Pdi1 (protein disulfide isomerase) (S. cerevisiae, UniProt P17967 29-522); assay: cross-linking; competition: RBΔS, RBun or RBsc incubated with Mnl1–Pdi1 complex at the indicated molar ratios (tenfold excess in Fig. 6) in 25 mM HEPES pH 7.4, 150 mM NaCl, 0.1% Nonidet P-40, 2 mM CaCl2, 30 °C 30 min; then DPS 30 °C 30 min, N-ethylmaleimide; SDS-PAGE, Coomassie blue
T3 construct: Pdi1, protein disulfide isomerase of S. cerevisiae, untagged; Trx domains a, b, b′ and a′; amino acids 24–500 could be modelled; source: S. cerevisiae, overexpressed together with Mnl1–FLAG (GAL1 promoter), purified as a complex
T3 sequence (looked up): T1 sequence (looked up) 2

B1: RNase B, completely unfolded (reduced and denatured) (enzyme, UniProt P61823 27-150, looked up)
chain: KETAAAKFERQHMDSSTSAASSSNYCNQMMKSRNLTKDRCKPVNTFVHESLADVQAVCSQKNVACKNGQTNCYQSYSTMSITDCRETGSSKYPNCAYKTTQANKHIIVACEGNPYVPVHFDASV
modifications: N-glycan; cysteines reduced; DyLight 680 (NHS ester) label in the pull-downs
notes: RNase B, reduced and denatured; also called RBun; unfolded RNase B; source: prepared from RB with 6 M guanidine hydrochloride and 100 mM DTT, denaturants removed by dialysis and a desalting column
With B1 the binding result [1] was “binds”, the binding result [2] was “binds” and the “molar excess for half-maximal inhibition of the Mnl1–Pdi1 disulfide adduct” value [3] was 2 fold molar excess.
